Data published in patent US20250066422A1 (published 2025).

Target: T1, HLA-A*0201 (human)
T1 construct: MHC monomer first loaded with a UV-sensitive peptide that is cleaved and exchanged for the test peptide; captured on streptavidin; also called peptide-receptive MHC molecules
Assay: UV-ligand exchange, streptavidin/anti-b2m sandwich ELISA
Source text: Candidate peptides for the vaccines according to the present invention were further tested for immunogenicity by in vitro priming assays. The individual peptide-MHC complexes required for these assays were produced by UV-ligand exchange, where a UV-sensitive peptide is cleaved upon UV-irradiation, and exchanged with the peptide of interest as analyzed. Only peptide candidates that can effectively bind and stabilize the peptide-receptive MHC molecules prevent dissociation of the MHC complexes. To determine the yield of the exchange reaction, an ELISA was performed based on the detection of the light chain (β2m) of stabilized MHC complexes.
96 well MAXISorp plates (NUNC) were coated over night with 2ug/ml streptavidin in PBS at room temperature, washed 4× and blocked for 30 min at 37° C. in 2% BSA containing blocking buffer. Refolded HLAA*0201/MLA-001 monomers served as standards, covering the range of 8-500 ng/ml. Peptide-MHC monomers of the UV-exchange reaction were diluted 100 fold in blocking buffer. Samples were incubated for 1 h at 37° C., washed four times, incubated with 2ug/ml HRP conjugated anti-β2m for 1 h at 37° C., washed again and detected with TMB solution that is stopped with […]. Absorption was measured at 450 nm.

Row | Average exchange yield in % | Binder
1 | 56% | SLFGNSGILENV (synthetic peptide from CEP192) [CEP192-001]
2 | 54% | KLVEFDFLGA (synthetic peptide from TACC3) [TACC3-001]
3 | 68% | AVVEFLTSV (synthetic peptide from DROSHA) [DROSHA-001]
4 | 55% | ALFPHLLQPV (synthetic peptide from CSE1L) [CSE1-001]
5 | 61% | RLLDSVSRL (synthetic peptide from LAMC2) [LAMC2-001]
6 | 87% | GVLENIFGV (synthetic peptide from PCNXL3) [PCNXL3-001]
7 | 45% | RLLGPSAAADILQL (synthetic peptide from HUWE1) [HUWE1-001]
8 | 18% | AIMGFIGFFV (synthetic peptide from SEC61G) [SEC61G-001]
9 | 48% | SLYKGLLSV (synthetic peptide from RAD54B) [RAD54B-001]
10 | 73% | ALLRTVVSV (synthetic peptide from GALNT2) [GALNT2-001]
11 | 43% | VLFPNLKTV (synthetic peptide from BNC1) [BNC1-001]
12 | 45% | TLWYRAPEV (synthetic peptide from CDK4/CDK6) [CDK4-001]
13 | 55% | FLVDGSWSV (synthetic peptide from COL12A1) [COL12A1-002]
14 | 13% | YLIHFPVSV (synthetic peptide from AKR1C1, AKR1C2) [AKR-001]
15 | 56% | KILEDVVGV (synthetic peptide from TPX2) [TPX2-001]
16 | 71% | ALMDKEGLTAL (synthetic peptide from TANC2) [TANC2-001]
